Measurements: patent US20100040602A1 (RIBOVAX BIOTECHNOLOGIES, published 2010)

Columns and labels:
[1] = target: T1, CG3 antigen (recombinant interstrain fusion of gB Antigenic Domain 2 from hCMV strains AD169 and Towne) (human cytomegalovirus strain AD169; …); test: ELISA, CG3 antigen (gB AD2), cell culture supernatant
T1 construct: Commercial antigen (Biotest AG, cod. 807035); also called gB (AD2) antigen
T1 chain: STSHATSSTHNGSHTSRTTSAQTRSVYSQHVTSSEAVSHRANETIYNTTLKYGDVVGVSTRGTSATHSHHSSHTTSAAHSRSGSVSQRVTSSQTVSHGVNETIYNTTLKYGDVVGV

[2] = target: T2, gH(Ag)-GST fusion protein (gH amino terminal region, amino acids 16-144, hCMV strain VR1814, fused in frame … (human cytomegalovirus strain VR1814, UniProt P12824 16-144)); test: ELISA, plate-coated gH(Ag)-GST, cell culture supernatant, anti-human IgG-HRP
T2 construct: also called gH antigen; not shown: Glutathione-S-Transferase (GST)
T2 chain: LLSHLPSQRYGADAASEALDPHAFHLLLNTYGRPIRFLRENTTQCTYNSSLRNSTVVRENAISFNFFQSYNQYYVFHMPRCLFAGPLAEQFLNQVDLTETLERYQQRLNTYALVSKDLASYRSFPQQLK

B1: 26A1 antibody (natural human IgG1 secreted by the 26A1 subculture, tested as cell culture supernatant) (antibody, V domains shown)
VH: QVQLQESGPGLVKPSQTLSLICTVSGGSVSSGGDYWTWIRQHPGKGLEWLGYIHSSGNIFYNPSLKSRLTLSMDTSKNQFFLKLTSVTAADTAVYYCARVYHKDFVVVPGAFPFEFWFDPWGQGTLVTVSS
VL: SYVLTQPPSVSVAPGQTARIPCGGNEIGSKSVHWYQQKPGQAPVLVVHDDSDRPSGIPDRFSGSNSGNTATLTISRVEAGDEADYYCQVWDSGSDHHVVFGGGTKLTVLG
notes: It is a human IgG1; also called 26A1 IgG; IgG1 produced by 26A1 culture
B1: no binding [1]; no binding [2].
